Results from the supplement of paper PMC10567573.

B1: FAM50A (parent)
chain: KKREKQREQMEQMKQRIAEENIMK
B2: MGC16075 (parent)
chain: AGSRQALSFEVPPCNYDPEKWIQ

Variants of: B1
Assay: protein stability index of a GFP-peptide fusion (GPS, HEK-293T) (PSI 1-6); higher = more stable
Conditions: c terminus: a fixed tail appended
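Also: lentivirally expressed fusions sorted by FACS into six bins by GFP to DsRed ratio, PSI derived from sequencing read proportions per bin multiplied by bin number.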

Variant	protein stability index
KKREKQREQMEQMKQRIAEEQIMK	5.48
KKREKQREQMEQMKQRIAEEHIMK	4.46
KKREKQREQMEQMKQRIAEEYIMK	4.41
KKREKQREQMEQMKQRIAEEWIMK	3.91
KKREKQREQMEQMKQRIAEEPIMK	4.85
KKREKQREQMEQMKQRIAEEKIMK	5.35
KKREKQREQMEQMKQRIAEEVIMK	4.03
KKREKQREQMEQMKQRIAEEDIMK	5.11
KKREKQREQMEQMKQRIAEEAIMK	4.73
KKREKQREQMEQMKQRIAEERIMK	4.35
KKREKQREQMEQMKQRIAEESIMK	4.75
KKREKQREQMEQMKQRIAEETIMK	4.77
KKREKQREQMEQMKQRIAEEFIMK	4.31
KKREKQREQMEQMKQRIAEELIMK	3.99
KKREKQREQMEQMKQRIAEEMIMK	4.64
KKREKQREQMEQMKQRIAEEGIMK	4.75
KKREKQREQMEQMKQRIAEEIIMK	4.17
KKREKQREQMEQMKQRIAEEEIMK	5.12
KKREKQREQMEQMKQRIAEECIMK	4.63
KKREKQREQMEQMKQRIAEENIMA	4.33
KKREKQREQMEQMKQRIAEENIMW	3.77
KKREKQREQMEQMKQRIAEENIMI	4.35
KKREKQREQMEQMKQRIAEENIMN	4.77

Variant	protein stability index
KKREKQREQMEQMKQRIAEENIMF	4.39
KKREKQREQMEQMKQRIAEENIMC	5.14
KKREKQREQMEQMKQRIAEENIMG	4.99
KKREKQREQMEQMKQRIAEENIMQ	4.86
KKREKQREQMEQMKQRIAEENIME	4.85
KKREKQREQMEQMKQRIAEENIMT	4.95
KKREKQREQMEQMKQRIAEENIMR	4.16
KKREKQREQMEQMKQRIAEENIMV	4.82
KKREKQREQMEQMKQRIAEENIMP	4.46
KKREKQREQMEQMKQRIAEENIMY	4.24
KKREKQREQMEQMKQRIAEENIMD	5.12
KKREKQREQMEQMKQRIAEENIMM	5.03
KKREKQREQMEQMKQRIAEENIMS	4.88
KKREKQREQMEQMKQRIAEENIML	4.13
KKREKQREQMEQMKQRIAEENIMH	4.97
KKREKQREQMEQMKQRIAEENYMK	4.18
KKREKQREQMEQMKQRIAEENNMK	5.12
KKREKQREQMEQMKQRIAEENVMK	4.85
KKREKQREQMEQMKQRIAEENHMK	4.8
KKREKQREQMEQMKQRIAEENTMK	5.46
KKREKQREQMEQMKQRIAEENMMK	5.07
KKREKQREQMEQMKQRIAEENGMK	5.2
KKREKQREQMEQMKQRIAEENCMK	5.22

Variant	protein stability index
KKREKQREQMEQMKQRIAEENKMK	4.16
KKREKQREQMEQMKQRIAEENRMK	4.92
KKREKQREQMEQMKQRIAEENLMK	4.91
KKREKQREQMEQMKQRIAEENSMK	5.33
KKREKQREQMEQMKQRIAEENPMK	5.12
KKREKQREQMEQMKQRIAEENDMK	5.54
KKREKQREQMEQMKQRIAEENFMK	3.93
KKREKQREQMEQMKQRIAEENAMK	4.48
KKREKQREQMEQMKQRIAEENQMK	4.75
KKREKQREQMEQMKQRIAEENEMK	5.68
KKREKQREQMEQMKQRIAEENWMK	4.63
KKREKQREQMEQMKQRIAEHNIMK	4.39
KKREKQREQMEQMKQRIAEINIMK	4
KKREKQREQMEQMKQRIAEPNIMK	4.8
KKREKQREQMEQMKQRIAEQNIMK	4.17
KKREKQREQMEQMKQRIAEFNIMK	3.79
KKREKQREQMEQMKQRIAETNIMK	4.85
KKREKQREQMEQMKQRIAEKNIMK	3.96
KKREKQREQMEQMKQRIAERNIMK	4.48
KKREKQREQMEQMKQRIAEGNIMK	4.34
KKREKQREQMEQMKQRIAELNIMK	3.84
KKREKQREQMEQMKQRIAEWNIMK	3.47
KKREKQREQMEQMKQRIAENNIMK	4.44

Variant	protein stability index
KKREKQREQMEQMKQRIAEVNIMK	3.74
KKREKQREQMEQMKQRIAESNIMK	3.37
KKREKQREQMEQMKQRIAEYNIMK	3.62
KKREKQREQMEQMKQRIAEMNIMK	3.79
KKREKQREQMEQMKQRIAEENINK	4.66
KKREKQREQMEQMKQRIAEENICK	4.83
KKREKQREQMEQMKQRIAEENIRK	3.3
KKREKQREQMEQMKQRIAEENIVK	5.27
KKREKQREQMEQMKQRIAEENIPK	5.46
KKREKQREQMEQMKQRIAEENITK	4.93
KKREKQREQMEQMKQRIAEENIHK	4.89
KKREKQREQMEQMKQRIAEENIDK	5.14
KKREKQREQMEQMKQRIAEENIAK	4.63
KKREKQREQMEQMKQRIAEENIEK	5.25
KKREKQREQMEQMKQRIAEENISK	5.28
KKREKQREQMEQMKQRIAEENIKK	4.99
KKREKQREQMEQMKQRIAEENIWK	4.02
KKREKQREQMEQMKQRIAEENIYK	4.75
KKREKQREQMEQMKQRIAEENIFK	4.32
KKREKQREQMEQMKQRIAEENIIK	4.04
KKREKQREQMEQMKQRIAEENIQK	5.45
KKREKQREQMEQMKQRIAEENILK	4.49
KKREKQREQMEQMKQRIAEENIGK	5

Variants of: B2
Assay: as above
Conditions: c terminus: native

Variant	protein stability index
MGSRQALSFEVPPCNYDPEKWIQ	1.25
CGSRQALSFEVPPCNYDPEKWIQ	1.19
RGSRQALSFEVPPCNYDPEKWIQ	2.04
FGSRQALSFEVPPCNYDPEKWIQ	3.97
GGSRQALSFEVPPCNYDPEKWIQ	1.68
PGSRQALSFEVPPCNYDPEKWIQ	2.5
DGSRQALSFEVPPCNYDPEKWIQ	2.9
SGSRQALSFEVPPCNYDPEKWIQ	1.46
KGSRQALSFEVPPCNYDPEKWIQ	2.18
IGSRQALSFEVPPCNYDPEKWIQ	1.9
YGSRQALSFEVPPCNYDPEKWIQ	2.8
TGSRQALSFEVPPCNYDPEKWIQ	2.09
EGSRQALSFEVPPCNYDPEKWIQ	2.19
QGSRQALSFEVPPCNYDPEKWIQ	2.17
HGSRQALSFEVPPCNYDPEKWIQ	1.82
WGSRQALSFEVPPCNYDPEKWIQ	3.29
NGSRQALSFEVPPCNYDPEKWIQ	2.23
LGSRQALSFEVPPCNYDPEKWIQ	1.22
AGSRQDLSFEVPPCNYDPEKWIQ	2.91
AGSRQKLSFEVPPCNYDPEKWIQ	2.47
AGSRQHLSFEVPPCNYDPEKWIQ	1.71
AGSRQGLSFEVPPCNYDPEKWIQ	1.03
AGSRQELSFEVPPCNYDPEKWIQ	1.92
AGSRQLLSFEVPPCNYDPEKWIQ	3.71
AGSRQCLSFEVPPCNYDPEKWIQ	2.03

Variant	protein stability index
AGSRQFLSFEVPPCNYDPEKWIQ	2.46
AGSRQILSFEVPPCNYDPEKWIQ	3.05
AGSDQALSFEVPPCNYDPEKWIQ	2.41
AGSKQALSFEVPPCNYDPEKWIQ	1.72
AGSVQALSFEVPPCNYDPEKWIQ	2.61
AGSEQALSFEVPPCNYDPEKWIQ	1.83
AGSSQALSFEVPPCNYDPEKWIQ	2.21
AGSFQALSFEVPPCNYDPEKWIQ	2.41
AGSTQALSFEVPPCNYDPEKWIQ	2.14
AGSNQALSFEVPPCNYDPEKWIQ	1.98
AGSWQALSFEVPPCNYDPEKWIQ	3.74
AGSAQALSFEVPPCNYDPEKWIQ	2.66
AGSHQALSFEVPPCNYDPEKWIQ	2.67
AGSLQALSFEVPPCNYDPEKWIQ	2.53
AGSIQALSFEVPPCNYDPEKWIQ	2.7
AGSYQALSFEVPPCNYDPEKWIQ	1.22
AGSPQALSFEVPPCNYDPEKWIQ	2.77
AGSMQALSFEVPPCNYDPEKWIQ	3.08
AGSQQALSFEVPPCNYDPEKWIQ	1.87
AGSCQALSFEVPPCNYDPEKWIQ	1.57
AGSGQALSFEVPPCNYDPEKWIQ	1.39
AGARQALSFEVPPCNYDPEKWIQ	1.67
AGMRQALSFEVPPCNYDPEKWIQ	1.92
AGGRQALSFEVPPCNYDPEKWIQ	2.88
AGIRQALSFEVPPCNYDPEKWIQ	1.99

Variant	protein stability index
AGYRQALSFEVPPCNYDPEKWIQ	1.28
AGPRQALSFEVPPCNYDPEKWIQ	2.18
AGKRQALSFEVPPCNYDPEKWIQ	2.32
AGTRQALSFEVPPCNYDPEKWIQ	1.79
AGNRQALSFEVPPCNYDPEKWIQ	1.59
AGVRQALSFEVPPCNYDPEKWIQ	1.27
AGLRQALSFEVPPCNYDPEKWIQ	1.93
AGERQALSFEVPPCNYDPEKWIQ	1.28
AGQRQALSFEVPPCNYDPEKWIQ	1.6
AGFRQALSFEVPPCNYDPEKWIQ	4.6
AGWRQALSFEVPPCNYDPEKWIQ	2.7
AGDRQALSFEVPPCNYDPEKWIQ	1.86
AGHRQALSFEVPPCNYDPEKWIQ	2.44
AGRRQALSFEVPPCNYDPEKWIQ	1.57
AGCRQALSFEVPPCNYDPEKWIQ	1.52
AHSRQALSFEVPPCNYDPEKWIQ	2.4
ADSRQALSFEVPPCNYDPEKWIQ	1.93
ATSRQALSFEVPPCNYDPEKWIQ	1.95
ASSRQALSFEVPPCNYDPEKWIQ	1.75
AMSRQALSFEVPPCNYDPEKWIQ	2.88
AYSRQALSFEVPPCNYDPEKWIQ	2.51
ARSRQALSFEVPPCNYDPEKWIQ	2.58
ALSRQALSFEVPPCNYDPEKWIQ	2.27
AESRQALSFEVPPCNYDPEKWIQ	1.48
AWSRQALSFEVPPCNYDPEKWIQ	1.68

Variant	protein stability index
AVSRQALSFEVPPCNYDPEKWIQ	1.97
AFSRQALSFEVPPCNYDPEKWIQ	2.77
AKSRQALSFEVPPCNYDPEKWIQ	2
AQSRQALSFEVPPCNYDPEKWIQ	2.2
AASRQALSFEVPPCNYDPEKWIQ	1.77
ANSRQALSFEVPPCNYDPEKWIQ	2.37
APSRQALSFEVPPCNYDPEKWIQ	1.94
AISRQALSFEVPPCNYDPEKWIQ	2.37
AGSRYALSFEVPPCNYDPEKWIQ	2.68
AGSRPALSFEVPPCNYDPEKWIQ	1.47
AGSREALSFEVPPCNYDPEKWIQ	3.29
AGSRTALSFEVPPCNYDPEKWIQ	2.12
AGSRSALSFEVPPCNYDPEKWIQ	1.48
AGSRFALSFEVPPCNYDPEKWIQ	3.99
AGSRDALSFEVPPCNYDPEKWIQ	1.52
AGSRGALSFEVPPCNYDPEKWIQ	2.03
AGSRAALSFEVPPCNYDPEKWIQ	1.8
AGSRKALSFEVPPCNYDPEKWIQ	1.3
AGSRMALSFEVPPCNYDPEKWIQ	1.72
AGSRVALSFEVPPCNYDPEKWIQ	2.35
AGSRNALSFEVPPCNYDPEKWIQ	1.82
AGSRWALSFEVPPCNYDPEKWIQ	4.32
AGSRHALSFEVPPCNYDPEKWIQ	1.82
AGSRRALSFEVPPCNYDPEKWIQ	1.84
